Reference: patent US20110177056A1

Target: EGF receptor (ErbB1) on A431 cells (UniProt P00533)
Experiment: cell-based or functional assay

B1: EGF variant v3 (EGFv3) (ligand)
chain: NSDPKCPLSHEGYCLNDGVCMYIGTLDRYACNCVVGYVGERCQYRDLKLAELR
B1 gave a pEC50 (phosphoY1068 EGF receptor, MSD electrochemiluminescence, A431 cells) of 7.61 pEC50.
